Reference: PMC8202330, “Phosphorylation of the LIR Domain of SCOC Modulates ATG8 Binding Affinity and Specificity” (Journal of Molecular Biology, 2021)
Non-standard residues stand in square brackets, D forms with d. *: point of attachment. Biotin = O=C1N[C@H]2[C@H](CS[C@H]2CCCCC(=O)*)N1; pS = N[C@@H](COP(=O)(O)O)C(=O)O; linker = not defined here

T1: SCOC aa 11–25 LIR peptide (human, reading uncertain)
T1 construct: SCOC isoform 3 aa 11-25; also called SCOC LIR motif (aa 11–25); source: synthetic peptide
T1 peptide: {Biotin-linker}-DSTFTNISLADDIDH-NH2

T2: SCOC aa 6–18 LIR peptide (human, reading uncertain)
T2 construct: SCOC isoform 3 aa 6-18; source: synthetic peptide
T2 peptide: {Biotin-linker}-KEEEEDSTFTNIS-NH2

T3: SCOC pS12/pT15 LIR peptide (human, phosphoserine at 12; phosphothreonine at 15; biotin-linker on the N-terminus; C-terminal amide)
T3 construct: SCOC isoform 3 aa 6-25; also called S12/T15^SCOC; source: synthetic peptide
T3 peptide: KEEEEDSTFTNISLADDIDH

T4: SCOC pS12 LIR peptide (human, phosphoserine at 12; biotin-linker on the N-terminus; C-terminal amide)
T4 construct: SCOC isoform 3 aa 6-25; source: synthetic peptide
T4 peptide: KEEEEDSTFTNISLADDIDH

B1: LC3C (for BLI) (natural protein, human, UniProt Q9BXW4 1-126, looked up)
chain: MPPPQKIPSVRPFKQRKSLAIRQEEVAGIRAKFPNKIPVVVERYPRETFLPPLDKTKFLVPQELTMTQFLSIIRSRMVLRATEAFYLLVNNKSLVSMSATMAEIYRDYKDEDGFVYMTYASQETFG
notes: human LC3C in the pAL plasmid (GST, 3C site)
B2: GABARAP (for BLI) (natural protein, human, UniProt O95166 1-117, looked up)
chain: MKFVYKEEHPFEKRRSEGEKIRKKYPDRVPVIVEKAPKARIGDLDKKKYLVPSDLTVGQFYFLIRKRIHLRAEDALFFFVNNVIPPTSATMGQLYQEHHEEDFFLYIAYSDESVYGL
notes: human GABARAP in the pAL plasmid (GST, 3C site)
B3: SCOC WT (aa 6–25) LIR peptide (peptide)
peptide: {Biotin-linker}-KEEEEDSTFTNISLADDIDH-NH2
modifications: reading uncertain
notes: SCOC isoform 3 aa 6-25; also called SCOC (WT) LIR domain peptide; SCOC LIR; source: synthetic peptide
B4: SCOC aa 6–20 LIR peptide (peptide)
peptide: {Biotin-linker}-KEEEEDSTFTNISLA-NH2
modifications: reading uncertain
notes: SCOC isoform 3 aa 6-20; also called SCOC LIR motif (aa 6–20); source: synthetic peptide
B5: SCOC aa 6–20/pS18 LIR peptide (peptide)
peptide: {Biotin-linker}-KEEEEDSTFTNI[pS]LA-NH2
modifications: reading uncertain
notes: SCOC isoform 3 aa 6-20; source: synthetic peptide

Experiments:
Assay in all cases: BLI; biotinylated LIR peptide immobilized on streptavidin biosensor, ATG8 in solution; 25 mM Tris pH 7.5, 150 mM NaCl, 0.5 mM TCEP, 0.1% Tween20, 1 mg/ml BSA; 25 °C; Kd from response against concentration
Details in all cases: both partners purified
[1] = biological target: T1, SCOC aa 11–25 LIR peptide
SCOC aa 6–18 LIR peptide = biological target: T2, SCOC aa 6–18 LIR peptide
[2] = biological target: T3, SCOC pS12/pT15 LIR peptide
SCOC pS12 LIR peptide = biological target: T4, SCOC pS12 LIR peptide
GABARAP (for BLI) = biological target: B2
LC3C (for BLI) = biological target: B1
LC3B (for BLI) = LC3B (for BLI) (human, UniProt Q9GZQ8 1-120)
GABARAPL1 (for BLI) = biological target: T5, GABARAPL1 (for BLI) (human, UniProt Q9H0R8 1-117)
T5 construct: human GABARAPL1 in the pAL plasmid (GST, 3C site)

LC3A (for BLI) = biological target: T6, LC3A (for BLI) (human, UniProt Q9H492 1-121)
T6 construct: human LC3A in the pAL plasmid (GST, 3C site)

GABARAPL2 (for BLI) = biological target: T7, GABARAPL2 (for BLI) (human, UniProt P60520 1-117)
T7 construct: human GABARAPL2 in the pAL plasmid (GST, 3C site)
T7 sequence (P60520 whole entry): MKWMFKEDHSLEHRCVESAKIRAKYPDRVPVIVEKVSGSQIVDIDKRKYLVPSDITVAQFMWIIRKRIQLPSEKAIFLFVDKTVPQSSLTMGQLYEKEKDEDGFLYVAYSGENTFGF

B1
fold decrease in affinity against SCOC WT LIR peptide [1]: 16 fold
fold decrease in affinity against SCOC WT LIR peptide (SCOC aa 6–18 LIR peptide): 22 fold
fold increase in affinity over SCOC WT LIR peptide [2]: 21 fold

B2
fold decrease in affinity against SCOC WT LIR peptide [1]: 37 fold
fold decrease in affinity against SCOC WT LIR peptide (SCOC aa 6–18 LIR peptide): 4 fold
fold increase in affinity over SCOC WT LIR peptide (SCOC pS12 LIR peptide): 2 fold

B3
Kd (GABARAP (for BLI)): 3.6 µM
Kd (LC3C (for BLI)): 8.7 µM
Kd (LC3B (for BLI)): 270 µM
Kd (GABARAPL1 (for BLI)): 2.3 µM
Kd (LC3A (for BLI)): 27.8 µM
Kd (GABARAPL2 (for BLI)): 44.4 µM

B4
binding result (GABARAP (for BLI)): binds
binding result (LC3C (for BLI)): binds
binding result (GABARAPL1 (for BLI)): binds

B5
binding result (GABARAP (for BLI)): binds
binding result (LC3C (for BLI)): binds
binding result (GABARAPL1 (for BLI)): binds
binding result (LC3A (for BLI)): binds
